From IntAct's records for PubMed 30518913

B1: UbiA prenyltransferase domain-containing protein 1 (Homo sapiens), Q9Y5Z9 (parent)
chain: MAASQVLGEKINILSGETVKAGDRDPLGNDCPEQDRLPQRSWRQKCASYVLALRPWSFSASLTPVALGSALAYRSHGVLDPRLLVGCAVAVLAVHGAGNLVNTYYDFSKGIDHKKSDDRTLVDRILEPQDVVRFGVFLYTLGCVCAACLYYLSPLKLEHLALIYFGGLSGSFLYTGGIGFKYVALGDLIILITFGPLAVMFAYAIQVGSLAIFPLVYAIPLALSTEAILHSNNTRDMESDREAGIVTLAILIGPTFSYILYNTLLFLPYLVFSILATHCTISLALPLLTIPMAFSLERQFRSQAFNKLPQRTAKLNLLLGLFYVFGIILAPAGSLPKI

Variants of: B1
Settings: with rash_human HRAS

effect of a mutation on the interaction | Variant
disrupting interaction | MAASQVLGEKINILSGETVKAGDRDPLGNDCPEQDRLPQRSWRQKCASYVLALAAAAFSASLTPVALGSALAYRSHGVLDPRLLVGCAVAVLAVHGAGNLVNTYYDFSKGIDHKKSDDRTLVDRILEPQDVVRFGVFLYTLGCVCAACLYYLSPLKLEHLALIYFGGLSGSFLYTGGIGFKYVALGDLIILITFGPLAVMFAYAIQVGSLAIFPLVYAIPLALSTEAILHSNNTRDMESDREAGIVTLAILIGPTFSYILYNTLLFLPYLVFSILATHCTISLALPLLTIPMAFSLERQFRSQAFNKLPQRTAKLNLLLGLFYVFGIILAPAGSLPKI [R54A;P55A;W56A;S57A]
disrupting interaction | MAASQVLGEKINILSGETVKAGDRDPLGNDCPEQDRLPQRSWRQKCASYVLALRPWSFSASLTPVALGSALAYRSHGVLDPRLLVGCAVAVLAVHGAGNLVSTYYDFSKGIDHKKSDDRTLVDRILEPQDVVRFGVFLYTLGCVCAACLYYLSPLKLEHLALIYFGGLSGSFLYTGGIGFKYVALGDLIILITFGPLAVMFAYAIQVGSLAIFPLVYAIPLALSTEAILHSNNTRDMESDREAGIVTLAILIGPTFSYILYNTLLFLPYLVFSILATHCTISLALPLLTIPMAFSLERQFRSQAFNKLPQRTAKLNLLLGLFYVFGIILAPAGSLPKI [N102S]
